The chains are these.
T1: Human nectin-4 ECD-6His (TNT-175) (human, UniProt Q96NY8 32-349)
T1 construct: the entry holds the extracellular domain with the C-terminal 6His tag
T1 sequence: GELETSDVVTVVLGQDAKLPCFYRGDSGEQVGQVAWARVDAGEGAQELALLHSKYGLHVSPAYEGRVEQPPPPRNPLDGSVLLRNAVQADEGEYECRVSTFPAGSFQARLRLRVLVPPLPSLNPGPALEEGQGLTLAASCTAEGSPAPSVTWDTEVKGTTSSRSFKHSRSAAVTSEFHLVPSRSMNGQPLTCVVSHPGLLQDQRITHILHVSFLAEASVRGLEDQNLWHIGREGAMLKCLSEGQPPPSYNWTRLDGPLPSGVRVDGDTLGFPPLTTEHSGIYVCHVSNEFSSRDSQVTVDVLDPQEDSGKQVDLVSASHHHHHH

T2: human nectin-4 on cells (human, UniProt Q96NY8 32-510)
T2 construct: whole, on cells; also called PVRL4
T2 sequence (looked up): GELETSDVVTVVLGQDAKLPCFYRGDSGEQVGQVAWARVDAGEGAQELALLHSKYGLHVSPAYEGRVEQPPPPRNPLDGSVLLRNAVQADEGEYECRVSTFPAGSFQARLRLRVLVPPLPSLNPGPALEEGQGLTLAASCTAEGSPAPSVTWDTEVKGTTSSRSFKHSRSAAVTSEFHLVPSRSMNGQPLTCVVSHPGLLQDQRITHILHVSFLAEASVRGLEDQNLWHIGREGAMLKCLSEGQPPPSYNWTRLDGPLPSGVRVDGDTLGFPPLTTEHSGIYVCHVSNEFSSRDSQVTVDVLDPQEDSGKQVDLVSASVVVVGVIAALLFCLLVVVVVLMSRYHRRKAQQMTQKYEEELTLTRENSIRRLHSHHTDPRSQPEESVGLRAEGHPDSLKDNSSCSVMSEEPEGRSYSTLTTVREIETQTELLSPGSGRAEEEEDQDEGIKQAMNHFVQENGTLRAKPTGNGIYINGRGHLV

B1: TNT-194 (antibody, mouse IgG2a, kappa)
heavy: EVQLVQSGAEVKKPGASVKVSCKASGYTFTSYDINWVRQAPGQGLEWMGGIIPIFGTANYAQKFQGRVTITADESTSTAYMELRSLRSEDTAVYYCASTAVAGFGIDYWGQGTLVTVSSAKTTAPSVYPLAPVCGDTTGSSVTLGCLVKGYFPEPVTLTWNSGSLSSGVHTFPAVLQSDLYTLSSSVTVTSSTWPSQSITCNVAHPASSTKVDKKIEPRGPTIKPCPPCKCPAPNLLGGPSVFIFPPKIKDVLMISLSPIVTCVVVDVSEDDPDVQISWFVNNVEVHTAQTQTHREDYNSTLRVVSALPIQHQDWMSGKEFKCKVNNKDLPAPIERTISKPKGSVRAPQVYVLPPPEEEMTKKQVTLTCMVTDFMPEDIYVEWTNNGKTELNYKNTEPVLDSDGSYFMYSKLRVEKKNWVERNSYSCSVVHEGLHNHHTTKSFSRTPGRPQGFGPP
light: DIQMTQSPSSLSASVGDRVTITCRASQGISNYLAWFQQKPGKAPKSLISAASSLQSGVPSRFSGSGSGTDFTLTISSLQPEDFATYYCLQHDSFPITFGGGTKLEIKRADAAPTVSIFPPSSEQLTSGGASVVCFLNNFYPKDINVKWKIDGSERQNGVLNSWTDQDSKDSTYSMSSTLTLTKDEYERHNSYTCEATHKTSTSPIVKSFNRNEC
B2: TNT-195 (antibody, mouse IgG2a, kappa)
heavy: EVQLVQSGAEVKKPGSSVKVSCKASGGTFSSYAISWVRQAPGQGLEWMGGIIPIFGTANYAQKFQGRVTITADKSTSTAYMELSSLRSEDTAVYYCAAGYYYDSSGYYHQPYYFDYWGQGTLVTVSSAKTTAPSVYPLAPVCGDTTGSSVTLGCLVKGYFPEPVTLTWNSGSLSSGVHTFPAVLQSDLYTLSSSVTVTSSTWPSQSITCNVAHPASSTKVDKKIEPRGPTIKPCPPCKCPAPNLLGGPSVFIFPPKIKDVLMISLSPIVTCVVVDVSEDDPDVQISWFVNNVEVHTAQTQTHREDYNSTLRVVSALPIQHQDWMSGKEFKCKVNNKDLPAPIERTISKPKGSVRAPQVYVLPPPEEEMTKKQVTLTCMVTDFMPEDIYVEWTNNGKTELNYKNTEPVLDSDGSYFMYSKLRVEKKNWVERNSYSCSVVHEGLHNHHTTKSFSRTPGRPQGFGPP
light: B1 light with S10T, F36Y, S46L, S49Y, L89Q, H91S, D92Y, F94T, I96L, L104V
B3: TNT-197 (antibody, mouse IgG2a, kappa)
heavy: EVQLVQSGGGVVQPGRSLRLSCAASGFTFSSYAMHWVRQAPGKGLEWVAVISYDGSNKYYADSVKGRFTISRDNSKNTLYLQMNSLRAEDTAVYYCARATLQLWLPLFDYWGQGTLVTVSSAKTTAPSVYPLAPVCGDTTGSSVTLGCLVKGYFPEPVTLTWNSGSLSSGVHTFPAVLQSDLYTLSSSVTVTSSTWPSQSITCNVAHPASSTKVDKKIEPRGPTIKPCPPCKCPAPNLLGGPSVFIFPPKIKDVLMISLSPIVTCVVVDVSEDDPDVQISWFVNNVEVHTAQTQTHREDYNSTLRVVSALPIQHQDWMSGKEFKCKVNNKDLPAPIERTISKPKGSVRAPQVYVLPPPEEEMTKKQVTLTCMVTDFMPEDIYVEWTNNGKTELNYKNTEPVLDSDGSYFMYSKLRVEKKNWVERNSYSCSVVHEGLHNHHTTKSFSRTPGRPQGFGPP
light: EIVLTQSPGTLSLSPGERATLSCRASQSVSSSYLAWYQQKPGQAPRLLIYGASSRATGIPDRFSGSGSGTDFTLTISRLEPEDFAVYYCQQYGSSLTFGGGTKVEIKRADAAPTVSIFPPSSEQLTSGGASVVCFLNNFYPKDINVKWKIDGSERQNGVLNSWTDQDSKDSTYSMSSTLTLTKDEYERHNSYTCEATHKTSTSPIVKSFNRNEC

Changes are numbered by the printed parent chain.

One assay has as its target T1, Human nectin-4 ECD-6His (TNT-175). The assay can be described thus: competition ELISA; nectin-4 ECD premixed with TNT201, captured by the coat antibody; % of signal without premix antibody. In short, it runs like this: (§1)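 Goat anti-mouse IgG was coated at 1 mg/mL in PBS overnight at 4° C. Premixes were applied for an hour, then rabbit anti-6×His HRP (1:4,000) for an hour at room temperature, then ABTS for 20 minutes. O.D. values, background-corrected, were reported relative to nectin-4 alone at its lowest dilution.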
In general terms: In an ELISA, binding on a coated surface is turned into a signal by an enzyme label.
Take B1: the “% of Positive” value is 6.7%.

On to B2, for which the “% of Positive” value worked out at 6.6%.

As for B3, the “% of Positive” value was found to be 1.7%.

The target is the same in another assay. Briefly: competition ELISA; nectin-4 ECD premixed with TNT207, captured by the coat antibody; % of signal without premix antibody. In short, it runs like this: as §1
With B1, the “% of Positive” value came out at 18.4%.

As to B2, the “% of Positive” value turned out to be 18.3%.

As for B3, the “% of Positive” value worked out at 3.4%.

For a further assay the target is unchanged. The assay can be described thus: competition ELISA; nectin-4 ECD premixed with TNT212, captured by the coat antibody; % of signal without premix antibody. The gist of the method: as §1
On to B1, for which the “% of Positive” value is 21.2%.

Turning to B2, the “% of Positive” value was 20.7%.

Turning to B3, the “% of Positive” value was determined as 2.7%.

The target is the same in another assay. Briefly: SPR ProteOn, mAb on protein A. As for the experimental part: Initial testing of binding of nectin-4 antibodies to nectin-4. […] Biotinylated protein A (15 μg/mL) was immobilized to the surface of an NLC chip. 30 nM of purified mAb supernatant was diluted in PBS-T and captured over the protein A surface. Serial dilutions of human nectin-4 were injected over the mAb-coated chips, and binding kinetics were determined. Chips were regenerated using 4:1 v/v of IgG elution butter/4M NaCl.
Turning to B1, the affinity, expressed as Kd, was 0.585 nM; the koff is 0.0023 s⁻¹; the kon was determined as 3.92e+06 M⁻¹ s⁻¹.

For B2, the Kd worked out at 1.34 nM, the koff amounted to 0.00125 s⁻¹ and the kon was found to be 930000 M⁻¹ s⁻¹.

As to B3, the Kd came to 4.28 nM, the dissociation rate constant (koff) amounted to 0.00334 s⁻¹ and the kon was determined as 780000 M⁻¹ s⁻¹.

For the next assay the target is unchanged. The assay can be described thus: competition ELISA; nectin-4 ECD premixed with TNT205, captured by the coat antibody; % of signal without premix antibody. The gist of the method:
as §1
In the case of B1, the “% of Positive” value was 75.3%.

As to B2, the “% of Positive” value was found to be 63.2%.

On to B3, for which the “% of Positive” value amounted to 57.1%.

For a further assay the target is unchanged. Briefly: competition ELISA; nectin-4 ECD premixed with TNT204, captured by the coat antibody; % of signal without premix antibody. The gist of the method:
as §1
Take B1: the “% of Positive” value was found to be 18.7%.

Turning to B2, the “% of Positive” value came out at 15.2%.

On to B3, for which the “% of Positive” value was found to be 6.7%.

The target is the same in the next assay. The assay can be described thus: competition ELISA; nectin-4 ECD premixed with TNT203, captured by the coat antibody; % of signal without premix antibody. The gist of the method:
as §1
Consider B1, for which the “% of Positive” value is 65.2%.

Consider B2, for which the “% of Positive” value was 51.5%.

Take B3: the “% of Positive” value was found to be 39.7%.

A further assay shares this target. The assay can be described thus: competition ELISA; nectin-4 ECD premixed with TNT210, captured by the coat antibody; % of signal without premix antibody. The gist of the method: as §1
With B1, the “% of Positive” value was 11%.

For the molecule B2, the “% of Positive” value was found to be 16.3%.

Regarding B3, the “% of Positive” value amounted to 2.6%.

The target is the same in another assay. Briefly: competition ELISA; nectin-4 ECD premixed with TNT211, captured by the coat antibody; % of signal without premix antibody. In short, it runs like this: as §1
Turning to B1, the “% of Positive” value worked out at 46.1%.

Turning to B2, the “% of Positive” value amounted to 46.9%.

With B3, the “% of Positive” value worked out at 32.4%.

The next assay has the same target. Briefly: competition ELISA; nectin-4 ECD premixed with TNT202, captured by the coat antibody; % of signal without premix antibody. In short, it runs like this: as §1
Turning to B1, the “% of Positive” value was 27.9%.

In the case of B2, the “% of Positive” value is 24.7%.

Turning to B3, the “% of Positive” value was found to be 7.8%.

A further assay shares this target. The assay can be described thus: competition ELISA; nectin-4 ECD premixed with TNT209, captured by the coat antibody; % of signal without premix antibody. In short, it runs like this:
as §1
Take B1: the “% of Positive” value stood at 66.5%.

As to B2, the “% of Positive” value is 56.2%.

With B3, the “% of Positive” value was 37.2%.

The next assay addresses T2, human nectin-4 on cells. The assay can be described thus: flow cytometry MFI, MNK74 (nectin-4 positive) over AGS (negative). (Flow cytometry measures light scatter and fluorescence of single cells or particles in a stream.)
Regarding B1, the “Fold-change of binding to MNK74 compared to control AGS” value (“Fold-change of binding to MNK74” for short) is 7 fold.

As to B2, the “Fold-change of binding to MNK74” value amounted to 6.4 fold.

For B3, the “Fold-change of binding to MNK74” value stood at 4.8 fold.

In another assay the target is T1, Human nectin-4 ECD-6His (TNT-175). Briefly: competition ELISA; nectin-4 ECD premixed with TNT206, captured by the coat antibody; % of signal without premix antibody. The gist of the method:
as §1
On to B1, for which the “% of Positive” value worked out at 43.1%.

With B2, the “% of Positive” value came to 35.8%.

Turning to B3, the “% of Positive” value is 14.3%.

A further assay has the same target. The assay can be described thus: competition ELISA; nectin-4 ECD premixed with TNT208, captured by the coat antibody; % of signal without premix antibody. In short, it runs like this:
as §1
Consider B1, for which the “% of Positive” value came to 26.4%.

Turning to B2, the “% of Positive” value is 23.1%.

Consider B3, for which the “% of Positive” value is 5.8%.

As a reminder, the Kd is the concentration at which binding is half-saturated. As usually defined, the koff is the rate constant with which the complex falls apart. A lower koff goes with a long-lived complex. The term kon denotes a measure of how fast the partners come together. Low values mean slow association, high ones fast association.

The values are drawn from US20240382610A1 (TALLAC THERAPEUTICS, published 2024).
